The target of test [1] is Authentic CoV2 (SARS-CoV-2 JPN/TY/WK-521).
Test [2] concerns the target SARS-CoV2 S protein on VSV pseudovirus (SARS-CoV-2) (UniProt P0DTC2).
The target in test [3] is SARS-CoV-2 spike receptor-binding domain (RBD, amino acids 322 to 536), histidine-tagged (Example 2) (SARS-CoV-2) (UniProt P0DTC2).

Regarding REGN10933 (antibody), in test [1], the IC50, authentic virus neutralization came out at 0.0381 mg/L. Besides, the IC50, pseudovirus neutralization in test [2] is 0.0089 mg/L. Besides, the EC50 in test [3] came out at 0.194 mg/L.

In test [1], REGN10987 (antibody) showed an IC50, authentic virus neutralization of 0.134 mg/L. Besides, the IC50, pseudovirus neutralization in test [2] amounted to 0.0416 mg/L. The same substance gave an EC50 in test [3] of 3.3 mg/L.

Usually EC50 stands for the midpoint of the concentration-response curve. High values mean a less potent agent, low ones a more potent agent.
